Measured values: publication PMC3514274, “Recombinant sterol esterase from Ophiostoma piceae: an improved biocatalyst expressed in Pichia pastoris” (Microbial Cell Factories, 2012)
Each block holds one molecule with its values, some of them ahead of it.

Experiments:
[1] = biological target: deglycosylated recombinant sterol esterase from Ophiostoma piceae (OPE* treated with Endo H in non-denaturing conditions) (Ophiostoma piceae); assay: AUC; sedimentation velocity; purified protein 200 μg/mL in 25 mM sodium phosphate buffer pH 7.0, aqueous solution without detergent
[2] = biological target: recombinant sterol esterase from Ophiostoma piceae expressed in Pichia pastoris (Ophiostoma piceae); assay: as above
[3] = biological target: recombinant sterol esterase from Ophiostoma piceae expressed in Pichia pastoris (Ophiostoma piceae); assay: AUC; sedimentation equilibrium; purified protein 200 μg/mL in 25 mM sodium phosphate buffer pH 7.0, aqueous solution without detergent
[4] = substrate: CCCC(=O)OCC(COC(=O)CCC)OC(=O)CCC; assay: pH-stat titration of released fatty acid; format: biochemical, Ophiostoma piceae; conditions: 1 mM Tris-HCl pH 7.0, 0.15 M NaCl, 5% (v/v) Genapol X-100, 25°C, substrate emulsified in detergent
Description: (§1) pH-stat titration of released fatty acid on OPE* (recombinant sterol esterase from Ophiostoma piceae)

[5] = substrate: CCCC(=O)O[C@H]1CC[C@@]2(C)C(=CC[C@H]3[C@@H]4CC[C@H]([C@H](C)CCCC(C)C)[C@@]4(C)CC[C@@H]32)C1; assay: pH-stat titration of released fatty acid; format: biochemical, Ophiostoma piceae; conditions: 1 mM Tris-HCl pH 7.0, 0.15 M NaCl, 5% (v/v) Genapol X-100, 25°C, substrate emulsified in detergent
Description: as §1

[6] = substrate: CCCCC/C=C\C/C=C\CCCCCCCC(=O)O[C@H]1CC[C@@]2(C)C(=CC[C@H]3[C@@H]4CC[C@H]([C@H](C)CCCC(C)C)[C@@]4(C)CC[C@@H]32)C1; assay: pH-stat titration of released fatty acid; format: biochemical, Ophiostoma piceae; conditions: 1 mM Tris-HCl pH 7.0, 0.15 M NaCl, 5% (v/v) Genapol X-100, 25°C, substrate emulsified in detergent
Description: as §1

[7] = substrate: CCCCCCCC/C=C\CCCCCCCC(=O)OCC(COC(=O)CCCCCCC/C=C\CCCCCCCC)OC(=O)CCCCCCC/C=C\CCCCCCCC; assay: pH-stat titration of released fatty acid; format: biochemical, Ophiostoma piceae; conditions: 1 mM Tris-HCl pH 7.0, 0.15 M NaCl, 5% (v/v) Genapol X-100, 25°C, substrate emulsified in detergent
Description: as §1

[8] = substrate: CCCCCCCC/C=C\CCCCCCCC(=O)O[C@H]1CC[C@@]2(C)C(=CC[C@H]3[C@@H]4CC[C@H]([C@H](C)CCCC(C)C)[C@@]4(C)CC[C@@H]32)C1; assay: pH-stat titration of released fatty acid; format: biochemical, Ophiostoma piceae; conditions: 1 mM Tris-HCl pH 7.0, 0.15 M NaCl, 5% (v/v) Genapol X-100, 25°C, substrate emulsified in detergent
Description: as §1

[9] = substrate: CCCCCCCCCCCCCCCC(=O)Oc1ccc([N+](=O)[O-])cc1; assay: purified protein; format: biochemical, Ophiostoma piceae; conditions: 100 mM sodium phosphate pH 7.0, 0.15 M NaCl, 1% (v/v) Genapol X-100, 25°C

stoichiometry N [1]: 2
Molecule: deglycosylated recombinant sterol esterase from Ophiostoma piceae (OPE* treated with Endo H in non-denaturing conditions) (enzyme)

stoichiometry N [2]: 2 | stoichiometry N [3]: 2
Molecule: recombinant sterol esterase from Ophiostoma piceae expressed in Pichia pastoris (enzyme)

B1: OPE* (recombinant sterol esterase from Ophiostoma piceae) (Ophiostoma piceae) (protein)
chain: TTVNVNYPEGEVVGVSVLGIESFRGVPFAQPPVGNLRLKPPVRYTENIGTKDTTGIGPSCPQMYLSTGNGELLFQLVGNLINIPLFQTATLSSEDCLTLNIQRPAGTTSNSSLPVLFWIFGGGFELGTNQYYDGIDLLTEGISLGEPFIFVAINYRVGGFGFLGGKEIKADGSSNLGLLDQRIALEWVADNIASFGGDPSKVTIWGESAGSISVFDQMALYGGNNKYKGKALFRGGIMNSGSVVPAAPVDGVKAQAIYDHVVSEAGCAGTSDTLACLRTVDYTKFLTAVNSVPGIVSYSSIALSYLPRPDGVVLIDSPEEIVKNKQYAAVPMIIGDQEDEGTLFAVLPNNITSTAKIVQYFQDLYFYNATKEQLTAFVNTYPTDITAGSPFNTGIFNELYPGFKRLAAILGDMTFTLARRAFLQLCSEVNPDVPSWSYLASYDYGFPFLGTFHATDILQVFYGVLPNYASGSIQKYYINFVTTGDPNKGAAVDIQWPQWSAKKNILQIYATKAVIVADNFRAKSYEYLYNNIGIFRI
notes: N-terminus (EA)EAYVEF + TTVNVNYPE (6 or 8 extra residues, mixed); monomer/dimer, monomeric in Genapol X-100
Km [4]: 5100 ± 300 µM | kcat [4]: 1041 ± 14 s⁻¹ | kcat/Km [4]: 204000 M⁻¹ s⁻¹ | Km [5]: 1600 ± 200 µM | kcat [5]: 212 ± 7 s⁻¹ | kcat/Km [5]: 133000 M⁻¹ s⁻¹ | Km [6]: 710 ± 90 µM | kcat [6]: 798 ± 25 s⁻¹ | kcat/Km [6]: 1.13e+06 M⁻¹ s⁻¹ | Km [7]: 710 ± 90 µM | kcat [7]: 1362 ± 41 s⁻¹ | kcat/Km [7]: 1.92e+06 M⁻¹ s⁻¹ | Km [8]: 690 ± 100 µM | kcat [8]: 631 ± 21 s⁻¹ | kcat/Km [8]: 918000 M⁻¹ s⁻¹ | Km [9]: 370 ± 30 µM | kcat [9]: 1049 ± 28 s⁻¹ | kcat/Km [9]: 2.88e+06 M⁻¹ s⁻¹
